Each block holds one binder with its values, some of them ahead of it.
Biological target: T1, HLA-A0201 on the surface of T2 cells (human)
T1 construct: MHC class I molecule on TAP-deficient T2 cells
Assay: T2 cell peptide loading, 100 µM peptide, anti-HLA-A*02:01 FITC flow cytometry
Procedure: After centrifugation at 200 g for 5 minutes for cell collection, the collected cells were washed with phosphate buffer saline (PBS) buffer twice, before incubated with anti-HLA-A*02:01 FITC monoclonal antibody at 4° C. for 30 minutes. The mean fluorescence intensity of cells was then detected and analyzed by the flow cytometry (BD FACSJazz™) and its software.

Binder: FILDGSYSV [wild-type polypeptide (depicted in FILDGSYSV, SEQ ID NO:7)]
FI (fluorescence index): 1.59
Mean fluorescence intensity: 589

Binder: FLLDGLYSL [mutant polypeptide's variant (depicted in FLLDGLYSL, SEQ ID NO:6)]
FI (fluorescence index): 1.69
Mean fluorescence intensity: 612

Binder: FILDGLYSL [mutant polypeptide's variant (depicted in FILDGLYSL, SEQ ID NO:2)]
FI (fluorescence index): 1.99
Mean fluorescence intensity: 681

Binder: FILDGLYSV [mutant polypeptide (depicted in FILDGLYSV, SEQ ID NO:1)]
FI (fluorescence index): 1.92
Mean fluorescence intensity: 664

Now from value to binder:

FI (fluorescence index): 2.14
Mean fluorescence intensity: 714
Binder: FMLDGLYSL [mutant polypeptide's variant (depicted in FMLDGLYSL, SEQ ID NO:5)]

FI (fluorescence index): 2.34
Mean fluorescence intensity: 759
Binder: FMLDGLYSV [mutant polypeptide's variant (depicted in FMLDGLYSV, SEQ ID NO:3)]

FI (fluorescence index): 2.04
Mean fluorescence intensity: 692
Binder: FLLDGLYSV [mutant polypeptide's variant (depicted in FLLDGLYSV, SEQ ID NO:4)]
